In assay [1] the test system is COS-7 cells. The experiment in a line: agonist-induced cAMP signaling of receptor constructs in transiently transfected COS-7 cells. The assay is classed as cell-based. Here is the method: (§1) Cell Culture: COS-7 cells were cultured at 37° C. in T-75 flasks ([…] in Dulbecco's modified Eagle's medium (DMEM) supplemented with fetal bovine serum (10%), penicillin G (20 units/ml), streptomycin sulfate (20 μg/ml) and amphotericin B (0.05 μg/ml) in a humidified atmosphere containing 5% CO2. Cells were sub-cultured in 24-well plates and, when confluent, were treated with fresh media and shifted to 33° C. for 12 to 24 h prior to the assay (Bergwitz, C., et al., J. Biol. Chem. 272:28861–28868 (1997); Abell, A., et al., J. Biol. Chem. 271:4518–4527 (1996)).
PTH Receptor mutagenesis and COS-7 cell expression: The pcDNA-1-based plasmid encoding the intact HPTH-1 receptor (HK-WT in reference (Schipani, E., et al., Endocrinol. 132:2157–2165 (1993)) and herein called hP1R-WT) was used for studies in COS-7 cells. The truncated human PTH-1 receptor (hP1R-de1Nt) (FIG. 18) was constructed from the HK-WT plasmid by oligonucleotide-directed mutagenesis (Kunkel, T. A., Proc. Natl. Acad. Sci. USA 82:488–492 (1985)). […]
cAMP Stimulation: Stimulation of cells with peptide analogs was performed in 24-well plates. […] The cAMP content of the diluted lysate was determined by radioimmunoassay.

The subject of assay [2] is COS-7 cells. The assay is described as follows: basal cAMP signaling of tethered ligand/receptor constructs in transiently transfected COS-7 cells. Particulars: for level of basal cAMP signaling: no agonist. Format: cell-based. Here is the method: as §1
PTH Receptor mutagenesis and COS-7 cell expression: The pcDNA-1-based plasmid encoding the intact HPTH-1 receptor (HK-WT in reference (Schipani, E., et al., Endocrinol. 132:2157–2165 (1993)) and herein called hP1R-WT) was used for studies in COS-7 cells. The truncated human PTH-1 receptor (hP1R-de1Nt) (FIG. 18) was constructed from the HK-WT plasmid by oligonucleotide-directed mutagenesis (Kunkel, T. A., Proc. Natl. Acad. Sci. USA 82:488–492 (1985)). This mutant receptor is deleted for residues 24 to 181 and, assuming that signal peptidase cleavage occurs between Ala^22 and Tyr^23 (Nielsen, H., et al., Protein Engineering 10:1–6 (1997)), is predicted to have Tyr^23 as the N-terminal residue joined directly to Glu^182 located at or near the boundary of the first transmembrane domain. A similarly truncated rat PTH receptor was described by us previously (Luck, M., et al., Molec. Endocrinol. 13:670–680 (1999)). The tethered human PTH-1 receptor [hP1R-Tether(1–9)] (hTether-1 in FIG. 17) is based on the hP1R-de1NT construct, and has PTH(1–9) and a four glycine spacer (AVSEIQLMHGGGG) (SEQ ID NO: 72) inserted between residues 23 and 182. Assuming that signal peptidase cleavage occurs between Ala^22 and Tyr^23, hP1R-Tether(1–9) is predicted to have Tyr^23 as the N-terminal residue joined directly to Ala of the ligand. Analogs of hP1R-Tether(1–9) were made in a similar fashion. Transient transfections of COS-7 cells were performed using DEAE-dextran and 200 ng of cesium chloride-purified plasmid DNA per well of a 24-well plate, as described previously (Bergwitz, C., et al., J. Biol. Chem. 272:28861–28868 (1997)).
cAMP Stimulation: Stimulation of cells with peptide analogs was performed in 24-well plates. Cells were rinsed with 0.5 mL of binding buffer (50 mM Tris-HCl, 100 mM NaCl, 5 mM KCl, 2 mM CaCl2, 5% heat-inactivated horse serum, 0.5% fetal bovine serum, adjusted to pH 7.7 with HCl) and treated with 200 μL of cAMP assay buffer (Dulbecco's modified Eagle's medium containing 2 mM 3-isobutyl-1-methylxanthine, 1 mg/mL bovine serum albumin, 35 mM Hepes-NaOH, pH 7.4) and 100 μL of binding buffer containing varying amounts of peptide analog (final volume=300 μL). The medium was removed after incubation for 1 h at room temperature, and the cells were frozen (−80° C.), lysed with 0.5 mL 50 mM HCl, and refrozen (−80° C.). The cAMP content of the diluted lysate was determined by radioimmunoassay.

Results on five molecules are retold here after patent US7057012B1, “PTH functional domain conjugate peptides, derivatives thereof and novel tethered ligand-receptor molecules” (The General Hospital Corporation, priority 1998, dated 2006).

Where two headings read alike, the source gives them in different places.

B1: hP1R-WT: intact human PTH-1 receptor (protein)
chain: DADDVMTKEEQIFLLHRAQAQCEKRLKEVLQRPASIMESDKGWTSASTSGKPRKDKASGKLYPESEEDKEAPTGSRYRGRPCLPEWDHILCWPLGAPGEVVAVPCPDYIYDFNHKGHAYRRCDRNGSWELVPGHNRTWANYSECVKFLTNETREREVFDRLGMIYTVGYSVSLASLTVAVLILAYFRRLHCTRNYIHMHLFLSFMLRAVSIFVKDAVLYSGATLDEAERLTEEELRAIAQAPPPPATAAAGYAGCRVAVTFFLYFLATNYYWILVEGLYLHSLIFMAFFSEKKYLWGFTVFGWGLPAVFVAVWVSVRATLANTGCWDLSSGNKKWIIQVPILASIVLNFILFINIVRVLATKLRETNAGRCDTRQQYRKLLKSTLVLMPLFGVHYIVFMATPYTEVSGTLWQVQMHYEMLFNSFQGFFVAIIYCFCNGEVQAEIKKSWSRWTLALDFKRKARSGSSSYSYGPMVSHTSVTNVGPRVGLGLPLSPRLLPTATTNGHPQLPGHAKPGTPALETLETTPPAMAAPKDDGFLNGSCSGLDEEASGPERPPALLQEEWETVM
As for B1, the “time of maximal agonist-induced signaling” value with COS-7 cells [1] amounted to 40 min.

B2: hP1R-Tether(1–10): hP1R-Tether construct with the ligand chain extended to position 10 (protein)
chain: EIQLMHNGGGGEVFDRLGMIYTVGYSVSLASLTVAVLILAYFRRLHCTRNYIHMHLFLSFMLRAVSIFVKDAVLYSGATLDEAERLTEEELRAIAQAPPPPATAAAGYAGCRVAVTFFLYFLATNYYWILVEGLYLHSLIFMAFFSEKKYLWGFTVFGWGLPAVFVAVWVSVRATLANTGCWDLSSGNKKWIIQVPILASIVLNFILFINIVRVLATKLRETNAGRCDTRQQYRKLLKSTLVLMPLFGVHYIVFMATPYTEVSGTLWQVQMHYEMLFNSFQGFFVAIIYCFCNGEVQAEIKKSWSRWTLALDFKRKARSGSSSYSYGPMVSHTSVTNVGPRVGLGLPLSPRLLPTATTNGHPQLPGHAKPGTPALETLETTPPAMAAPKDDGFLNGSCSGLDEEASGPERPPALLQEEWETVM
Take B2: in the assay with COS-7 cells [2], the “level of basal cAMP signaling” value is given as “moderate, but significant, improvements”.

B3: hP1R-[R^11]-Tether(1–11): Made from hTether-1 by inserting Asn10-Arg11 between His9 and first Gly of linker (protein)
chain: MGTARIAPGLALLLCCPVLSSAYAVSEIQLMHNRGGGGEVFDRLGMIYTVGYSVSLASLTVAVLILAYFRRLHCTRNYIHMHLFLSFMLRAVSIFVKDAVLYSGATLDEAERLTEEELRAIAQAPPPPATAAAGYAGCRVAVTFFLYFLATNYYWILVEGLYLHSLIFMAFFSEKKYLWGFTVFGWGLPAVFVAVWVSVRATLANTGCWDLSSGNKKWIIQVPILASIVLNFILFINIVRVLATKLRETNAGRCDTRQQYRKLLKSTLVLMPLFGVHYIVFMATPYTEVSGTLWQVQMHYEMLFNSFQGFFVAIIYCFCNGEVQAEIKKSWSRWTLALDFKRKARSGSSSYSYGPMVSHTSVTNVGPRVGLGLPLSPRLLPTATTNGHPQLPGHAKPGTPALETLETTPPAMAAPKDDGFLNGSCSGLDEEASGPERPPALLQEEWETVM
Consider B3, for which, in the assay on COS-7 cells [2], the “basal signaling compared with maximum agonist-stimulated response of hP1R-WT” value is on record as “approached the maximum response attained by hP1R-WT”, the “time of maximum level of basal cAMP signaling” value is 40 min and the “level of basal cAMP signaling” value is given as “increased still further”. The “increase in basal cAMP signaling” value with COS-7 cells [2] (comparator not restated) is on record as 20 fold. Also, the “basal signaling compared with maximum agonist-stimulated response of hP1R-WT” value in the assay on COS-7 cells [2] (listed as hP1R-[R^11]Tether-(1–11)) is “approached the maximum agonist-stimulated response attained by hP1R-wildtype”. The “time of maximal agonist-induced signaling” value in the assay with COS-7 cells [1] was 40 min.

B4: hP1R-Tether(1–9): tethered human PTH-1 receptor: PTH(1–9) and four glycine spacer inserted between residues 23 and 182 of hP1R-delNT (protein)
chain: MGTARIAPGLALLLCCPVLSSAYAVSEIQLMHGGGGEVFDRLGMIYTVGYSVSLASLTVAVLILAYFRRLHCTRNYIHMHLFLSFMLRAVSIFVKDAVLYSGATLDEAERLTEEELRAIAQAPPPPATAAAGYAGCRVAVTFFLYFLATNYYWILVEGLYLHSLIFMAFFSEKKYLWGFTVFGWGLPAVFVAVWVSVRATLANTGCWDLSSGNKKWIIQVPILASIVLNFILFINIVRVLATKLRETNAGRCDTRQQYRKLLKSTLVLMPLFGVHYIVFMATPYTEVSGTLWQVQMHYEMLFNSFQGFFVAIIYCFCNGEVQAEIKKSWSRWTLALDFKRKARSGSSSYSYGPMVSHTSVTNVGPRVGLGLPLSPRLLPTATTNGHPQLPGHAKPGTPALETLETTPPAMAAPKDDGFLNGSCSGLDEEASGPERPPALLQEEWETVM
As for B4, the “enhancement in the basal level of cAMP relative to hde1NT” value in the assay with COS-7 cells [2] (absence of any agonist peptide) is on record as around 5 fold.

B5: hP1R-Tether(1–11): hP1R-Tether construct with the ligand chain extended to position 11, native leucine at 11 (protein)
chain: EIQLMHNLGGGGEVFDRLGMIYTVGYSVSLASLTVAVLILAYFRRLHCTRNYIHMHLFLSFMLRAVSIFVKDAVLYSGATLDEAERLTEEELRAIAQAPPPPATAAAGYAGCRVAVTFFLYFLATNYYWILVEGLYLHSLIFMAFFSEKKYLWGFTVFGWGLPAVFVAVWVSVRATLANTGCWDLSSGNKKWIIQVPILASIVLNFILFINIVRVLATKLRETNAGRCDTRQQYRKLLKSTLVLMPLFGVHYIVFMATPYTEVSGTLWQVQMHYEMLFNSFQGFFVAIIYCFCNGEVQAEIKKSWSRWTLALDFKRKARSGSSSYSYGPMVSHTSVTNVGPRVGLGLPLSPRLLPTATTNGHPQLPGHAKPGTPALETLETTPPAMAAPKDDGFLNGSCSGLDEEASGPERPPALLQEEWETVM
Turning to B5, in the assay on COS-7 cells [2], the “level of basal cAMP signaling” value is recorded as “moderate, but significant, improvements”.
